Reference: IntAct's records for PubMed 16810321

B1: bZIP transcription factor 53 (Arabidopsis thaliana (Mouse-ear cress)), Q9LZP8 (parent)
chain: MGSLQMQTSPESDNDPRYATVTDERKRKRMISNRESARRSRMRKQKQLGDLINEVTLLKNDNAKITEQVDEASKKYIEMESKNNVLRAQASELTDRLRSLNSVLEMVEEISGQALDIPEIPESMQNPWQMPCPMQPIRASADMFDC
partner: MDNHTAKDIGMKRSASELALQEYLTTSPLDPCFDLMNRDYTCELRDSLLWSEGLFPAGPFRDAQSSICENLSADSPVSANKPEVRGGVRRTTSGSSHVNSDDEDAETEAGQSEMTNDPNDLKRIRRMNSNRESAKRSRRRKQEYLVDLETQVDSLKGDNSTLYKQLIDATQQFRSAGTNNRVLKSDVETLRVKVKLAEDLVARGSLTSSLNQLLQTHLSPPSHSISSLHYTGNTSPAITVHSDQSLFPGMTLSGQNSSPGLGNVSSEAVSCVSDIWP
B2: bZIP transcription factor 53 (Arabidopsis thaliana (Mouse-ear cress)), Q9LZP8 (parent)
chain: B1 chain
partner: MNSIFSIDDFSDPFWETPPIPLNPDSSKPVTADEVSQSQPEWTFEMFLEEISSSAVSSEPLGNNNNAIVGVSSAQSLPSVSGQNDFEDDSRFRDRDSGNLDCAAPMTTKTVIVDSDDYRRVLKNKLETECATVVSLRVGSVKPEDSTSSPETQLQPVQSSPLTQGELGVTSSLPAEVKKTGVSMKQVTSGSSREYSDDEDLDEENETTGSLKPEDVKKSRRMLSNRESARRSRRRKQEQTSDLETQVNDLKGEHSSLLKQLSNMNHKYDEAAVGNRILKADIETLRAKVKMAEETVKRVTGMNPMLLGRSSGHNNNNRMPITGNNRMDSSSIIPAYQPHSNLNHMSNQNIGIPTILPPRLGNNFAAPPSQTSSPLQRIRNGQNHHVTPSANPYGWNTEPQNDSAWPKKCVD

Variants of: B1
Settings: with bzip9_arath BZIP9, Q9FUD3

| Variant | effect of a mutation on the interaction |
| --- | --- |
| A72P | disrupting interaction |
| L51P | disrupting interaction |

Variants of: B2
Settings: with bzp10_arath BZIP10, O22763

| Variant | effect of a mutation on the interaction |
| --- | --- |
| L51P | disrupting interaction |
| A72P | disrupting interaction |
